Measured values reported in patent publication US20060292683A1, “Cross-beta structures on microbial organisms” (Crossbeta Biosciences B.V., priority 2005, published 2006).

Legend:
[1] = target: glycated hemoglobin (Hb-AGE) (Homo sapiens, UniProt P68871+P69905); experiment: ELISA capture of glycated hemoglobin from solution by immobilized finger domains; type: binding; conditions: immobilized finger domain; not control hemoglobin
[2] = tested on: THP-1 monocytes; experiment: Tissue factor up-regulation in THP-1 monocytes by misfolded proteins; type: cell-based; conditions: 40 μg/ml glycated hemoglobin or 10 μg/ml amyloid-β(1-40); controls freshly dissolved
Procedure: For tissue factor expression analysis purposes, THP-1 cells were cultured in IMDM without gentamycin and streptomycin. At day 0, one ml of cells was seeded at 1×10^6 cells/ml in the wells of six-well culture plates. At day 1, […] PBS or with cross-beta structure binding compounds ThT, Congo red, tPA and IgIV, as described above, at a cell density of 1.8×10^7/ml (regular culturing conditions). Negative control was buffer. After six hours, the cells were pelleted by centrifugation and resuspended in 100 μl TBS (50 mM Tris-HCl, 150 mM NaCl, pH 7.0-7.3). Next, the cells were frozen and thawed for four subsequent cycles. Cells were centrifuged for ten minutes at 16,000*g and the supernatant was used for analysis of tissue factor (TF) expression. First, protein concentrations were determined using an established protein concentration assay (Bicinchoninic Acid (BCA) Protein Assay). Protein concentrations were equalized between samples with TBS to correct for variations in cell density. […] Conversion of the substrate by activated factor X at 37° C. was recorded in time for 100 minutes, by absorbance readings at 405 nm. As an additional control, factor X activity was assessed with S. aureus cells only, omitting the monocytes. […]

Chain of glycated hemoglobin (Hb-AGE) (P69905 whole entry, the tested form may be a part): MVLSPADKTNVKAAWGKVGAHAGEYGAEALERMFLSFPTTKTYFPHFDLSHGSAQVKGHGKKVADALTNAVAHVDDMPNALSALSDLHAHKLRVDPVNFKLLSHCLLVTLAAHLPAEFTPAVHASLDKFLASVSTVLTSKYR
Chain of glycated hemoglobin (Hb-AGE) (P68871 whole entry, the tested form may be a part): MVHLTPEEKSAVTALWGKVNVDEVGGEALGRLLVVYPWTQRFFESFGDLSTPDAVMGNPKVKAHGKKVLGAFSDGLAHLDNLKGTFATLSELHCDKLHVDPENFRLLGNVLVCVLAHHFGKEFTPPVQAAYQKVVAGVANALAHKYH

Substance | capture of glycated hemoglobin in solution [1] | TF expression in THP-1 monocytes (factor X activation by lysates) [2]
fibronectin F4-5 with a His-tag: recombinant fibronectin type I domains 4-5, N-terminally tagged to growth hormone and His6-tag, C-terminal His6-tag | specifically capture | 
amyloid-β: amyloid-β(1-40) with cross-beta structure conformation |  | induce elevated levels of TF
